Earlier results in article PMC7768499.

How the values were obtained:
IgA (Homo sapiens) = IgA (Homo sapiens) (UniProt P01876)
IgA1 (Homo sapiens) = IgA1 (Homo sapiens) (UniProt P01876)
IgA2 (Homo sapiens) = IgA2 (Homo sapiens) (UniProt P01877)
Sequence of IgA2 (Homo sapiens) (P01877 whole entry): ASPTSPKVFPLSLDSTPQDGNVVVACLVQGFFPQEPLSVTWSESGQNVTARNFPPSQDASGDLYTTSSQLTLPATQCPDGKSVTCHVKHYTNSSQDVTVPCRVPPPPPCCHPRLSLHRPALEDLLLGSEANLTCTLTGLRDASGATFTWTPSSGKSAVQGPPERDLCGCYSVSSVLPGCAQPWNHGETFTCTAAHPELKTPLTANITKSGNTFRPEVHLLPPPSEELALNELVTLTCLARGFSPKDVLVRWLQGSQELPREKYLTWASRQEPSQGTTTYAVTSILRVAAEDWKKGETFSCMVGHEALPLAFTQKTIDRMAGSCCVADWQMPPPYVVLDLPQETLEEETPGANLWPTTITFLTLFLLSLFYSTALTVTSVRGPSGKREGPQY

Sequence of FcαRI (P24071 22-287): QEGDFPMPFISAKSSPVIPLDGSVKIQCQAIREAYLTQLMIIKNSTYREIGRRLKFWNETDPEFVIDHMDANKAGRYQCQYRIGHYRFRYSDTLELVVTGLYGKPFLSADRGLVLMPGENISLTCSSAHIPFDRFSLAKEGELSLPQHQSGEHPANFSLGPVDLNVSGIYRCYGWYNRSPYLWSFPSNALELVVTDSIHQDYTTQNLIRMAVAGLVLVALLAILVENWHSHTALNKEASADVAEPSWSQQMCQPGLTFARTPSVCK
Sequence of IgA1 (Homo sapiens) (P01876 whole entry): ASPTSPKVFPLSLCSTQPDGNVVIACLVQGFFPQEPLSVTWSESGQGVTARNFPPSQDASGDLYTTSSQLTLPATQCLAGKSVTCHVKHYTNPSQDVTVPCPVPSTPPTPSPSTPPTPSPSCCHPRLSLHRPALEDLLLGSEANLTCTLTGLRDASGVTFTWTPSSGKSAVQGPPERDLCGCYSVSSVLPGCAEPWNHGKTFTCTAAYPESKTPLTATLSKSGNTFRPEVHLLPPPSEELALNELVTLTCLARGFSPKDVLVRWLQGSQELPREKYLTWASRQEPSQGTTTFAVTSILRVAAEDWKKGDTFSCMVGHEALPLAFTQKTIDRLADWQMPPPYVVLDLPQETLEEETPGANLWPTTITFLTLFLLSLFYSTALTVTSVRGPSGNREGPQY
Sequence of IgA (Homo sapiens) (P01876 whole entry): as above

Kd (IgA (Homo sapiens)): 20 nM
Kd (IgA1 (Homo sapiens)): 155 nM
Kd (IgA2 (Homo sapiens)): 20 nM
Substance: FcαRI (from UniProt P24071)
